For 16 molecules, median [+ligand]/median [w/o ligand]*100 results are on record in patent US20230272113A1.

The target in the test is human FLT3 on transfected CHO cells (human) (UniProt P36888). Briefly: FACS, scFv on CHO-human FLT3 cells pre-incubated with FLT3 ligand (competitor).

Positions count from the first letter of the chain named.

B1: FL-9 (scFv)
scFv: QVTLKESGPTLVKPTETLTLTCTVSGFSLSNARMGVSWIRQPPGKALEWLAHIFSNDEKSYSTSLKSRLTISKDTSKSQVVLTMTNMDPVDTATYYCARIPGYGGNFYYHYYGMDVWGQGTTVTVSSGGGGSGGGGSGGGGSDIQMTQSPSSLSASVGDRVTITCRASQGIRNDLAWYQQKPGKAPKRLIYAASTVQSGVPSRFSGSGSGTEFALTISSLQPEDFATYYCLQHNSFPWTFGQGTKVDIK
B1 displayed a median [+ligand]/median [w/o ligand]*100 greater than 75%.

B2: FL-16 (scFv)
scFv: QVTLKESGPVLVKPTETLTLTCTVSGFSLRNARMAVSWIRQPPGKTLEWLAHIFSNDEKSYSTSLKSRLTISKDTSKSQVVLTMTNMDPVDTATYYCARIVGYGSGWYGYFDYWGQGTLVTVSSGGGGSGGGGSGGGGSDIQMTQSPSSVSASVGDRVTITCRASQDIRYDLAWYQQKPGKAPKRLIYAASSLQSGVPSRFSGSGSGTEFTLTISSLQPEDFATYYCLQHNFYPLTFGGGTKVEIK
B2 gave a median [+ligand]/median [w/o ligand]*100 greater than 75%.

B3: FL-13 (scFv)
scFv: QVTLKESGPTLVKPTETLTLTCTLSGFSLNNARMGVSWIRQPPGKALEWLAHIFSNDEKSYSTSLKNRLTISKDSSKTQVVLTMTNVDPVDTATYYCARIVGYGSGWYGFFDYWGQGTLVTVSSGGGGSGGGGSGGGGSDIQMTQSPSSLSASVGDRVTITCRASQGIRNDLGWYQQKPGKAPKRLIYAASTLQSGVPSRFSGSGSGTEFTLTISSLQPEDFATYYCLQHNSYPLTFGGGTKVEIK
With B3, the median [+ligand]/median [w/o ligand]*100 is greater than 75%.

B4: FL-6 (scFv)
scFv: QVTLKESGPTLVKPTETLTLTCTLSGFSLNNARMAVSWIRQPPGKTLEWLAHIFSNDEKSYSPSLKSRLTISKDTSKSQVVLTMTNMDPEDTATYYCARIVGYGTGWYGFFDYWGQGILVTVSSGGGGSGGGGSGGGGSDIQMTQSPSSLSASVGDRVTITCRASQGIRNDLGWFQQKPGKAPKRLIYAASVLQSGVPSRFSGSGSGTEFTLTISSLQPEDFATYYCLQHNSYPLTFGGGTKVDIK
For B4, the median [+ligand]/median [w/o ligand]*100 was greater than 75%.

B5: FL-4 (scFv)
scFv: QVTLKESGPALVKPTETLTLTCTLSGFSLNNAKMGVSWIRQPPGKALEWLAHIFSNDEKSYSTSLKSRLTISKDTSKGQVVLTMTNMDPVDTATYYCARIVGYGSGWYGYFDYWGQGTLVTVSSGGGGSGGGGSGGGGSDIQMTQSPSSLSASVGDRVTITCRASQDIRDDLGWYQQKPGNAPKRLIYGASTLQSGVPSRFSGSGSGTEFTLTISSLQPEDFATYYCLQHNSYPLTFGGGTKVDIK
B5 had a median [+ligand]/median [w/o ligand]*100 greater than 75%.

B6: FL-11 (scFv)
scFv: B5 scFv with A10V, H52Q, D57G, A98S, D167G, D170N, N181K, D244E
Molecule B6 had a median [+ligand]/median [w/o ligand]*100 greater than 75%.

B7: FL-15 (scFv)
scFv: B5 scFv with K33R, G35A, A46T, R169G, D170N, N181K, G189A, T192S, D244E
With B7, the median [+ligand]/median [w/o ligand]*100 is greater than 75%.

B8: FL-14 (scFv)
scFv: B5 scFv with K33R, G35A, A46T, D170N, N181K, G189A, D244E
In turn, B8 had a median [+ligand]/median [w/o ligand]*100 greater than 75%.

B9: FL-3 (scFv)
scFv: QVTLKESGPALVKPTETLTLTCTVSGFSLSNARMAVSWIRQPPGKALEWLAHIFSNGEKSYSTSLKSRLTISKDTSKTQVVLTMTNTDPVDTATYFCARIVGYSDWLLPFDHWGQGIMVTVSSGGGGSGGGGSGGGGSDIQMTQSPSSLSASVGDRVTITCRASQNINRFLNWYQQKPGKAPKLLIYAASSLQSGVPSRFSGSGSGTDFTLTISSLQPEDFATYYCLQHNSYPWTFGQGTKVDIK
Consider B9, for which the median [+ligand]/median [w/o ligand]*100 is greater than 75%.

B10: FL-5 (scFv)
scFv: QVTLKESGPMLVKPTETLTLTCTFSGFSLRNARMGVSWIRQPPGKALEWLAHIFWNDEKSYSTSLKSRLTISKDTSKSQVVLTMTNMDPVDTATYYCARIPYYGSGSYNYGMDVWGQGTTVTVSSGGGGSGGGGSGGGGSDIQMTQSPSSLSASVGDRVTITCRASQGIRNDLGWYQQKPGKAPKRLIYAASSLQSGVPSRFSGSGSGTEFTLTISSLQPEDFATYYCLQHNTYPLTFGGGTKVDIK
The molecule B10 had a median [+ligand]/median [w/o ligand]*100 greater than 75%.

B11: FL-2 (scFv)
scFv: QVTLKESGPVLVKPTETLTLTCTVSGFSLRNARMGVSWIRQPPGKALEWLAHIFSNDEKTYSTSLKSRLTISRDTSKGQVVLTMTKMDPVDTATYYCARIPYYGSGSHNYGMDVWGQGTTVTVSSGGGGSGGGGSGGGGSDIQMTQSPSSLSASVGDRVTITCRASQDIRNDFGWYQQKPGKAPQRLLYAASTLQSGVPSRFSGSGSGTEFTLTISSLQPEDFATYYCLQYNTYPWTFGQGTKVEIK
B11: the median [+ligand]/median [w/o ligand]*100 was greater than 75%.

B12: FL-7 (scFv)
scFv: QVTLKESGPTLVKPTETLTLTCTVSGFSLNNARMGVSWIRQPPGKALEWLAHIFSNDEKSYSTSLKNRLTISKDSSKTQVVLTMTNVDPVDTATYYCARIVGYGTGWFGYFDYWGQGTQVTVSSGGGGSGGGGSGGGGSDIQMTQSPSSLSASVGDRVTITCRASQDIRTDLAWYQQKPGKAPKRLIYAASSLQSGVPSRFSGSGSGTEFTLTISSLQPEDFATYYCLQHNRYPLTFGGGTKVDIK
On to B12, for which the median [+ligand]/median [w/o ligand]*100 was greater than 75%.

B13: FL-1 (scFv)
scFv: QVTLKESGPVLVKPTETLTLTCTVSGFSLINARMGVSWIRQPPGKALEWLAHIFSNAEKSYRTSLKSRLTISKDTSKSQVVLTMTNMDPVDTATYYCARIPGYGGNGDYHYYGMDVWGQGTTVTVSSGGGGSGGGGSGGGGSDIQMTQSPSSLSASLGDRVTITCRASQGIRNDLGWYQQKPGKAPKRLIYASSTLQSGVPSRFSGSGSGTEFTLTISSLQPEDFATYYCLQHNNFPWTFGQGTKVEIK
B13 came in with a median [+ligand]/median [w/o ligand]*100 greater than 75%.

B14: FL-10 (scFv)
scFv: QVTLKESGPVLVKPTETLTLTCTVSGFSFRNARMGVSWIRQPPGKALEWLAHIFSNDEKSYSTSLKSRLTISKDTSKSQVVLTLTNMDPVDTATYFCARMPEYSSGWSGAFDIWGQGTMVTVSSGGGGSGGGGSGGGGSDIQMTQSPSSLSASVGDRVTITCRASQDIRDDLGWYQQKPGNAPKRLIYGASTLQSGVPSRFSGSGSGTEFTLTISSLQPEDFATYYCLQHNSYPLTFGGGTKVDIK
B14: the median [+ligand]/median [w/o ligand]*100 was greater than 75%.

B15: FL-8 (scFv)
scFv: QVTLKESGPALVKPTETLTLTCTVSGFSLSYARMGVSWIRQPPGKALEWLAQIFSNDEKSYSTSLKSRLTISKGTSNSQVVLTMTNMDPEDTATYYCARIVGYGTGWYGFFDYWGQGILVTVSSGGGGSGGGGSGGGGSDIQMTQSPSSLSASVGDRVTITCRASQGIRNDLGWYQQKPGKAPKRLIYAASSLQSGVPSRFSGSGSGTEFTLTISSLQPEDFATYYCLQHNSYPLTFGGGTKVDIK
For the molecule B15, the median [+ligand]/median [w/o ligand]*100 is greater than 75%.

B16: FL-12 (scFv)
scFv: B15 scFv with Y31N, Q52N, N77K, T105S, F110Y, I118T, K184Q, D244E
Take B16: the median [+ligand]/median [w/o ligand]*100 was greater than 75%.
